The Human Domainome abundance scans (Beltran et al. 2025)
± gives the uncertainty stated by the source.

B1: KAT8 regulatory NSL complex subunit 2, residues 28 to 91; numbered along this chain, Q9H9L4 (parent)
chain: CAFTHRPCSHPRLEGQEFCIKHILEDKNAPFKQCSYISTKNGKRCPNAAPKPEKKDGVSFCAEH

Variants of: B1
Assay: abundance fitness (aPCA) (normalised: wild type 0, dead -1); higher = more abundant; growth selection in yeast, the domain comes from the species named
Conditions: Homo sapiens

| Variant | abundance fitness |
| --- | --- |
| CAFTGRPCSHPRLEGQEFCIKHILEDKNAPFKQCSYISTKNGKRCPNAAPKPEKKDGVSFCAEH | -0.017 ± 0.056 |
| CAFTLRPCSHPRLEGQEFCIKHILEDKNAPFKQCSYISTKNGKRCPNAAPKPEKKDGVSFCAEH | -0.068 ± 0.054 |
| CAFTRRPCSHPRLEGQEFCIKHILEDKNAPFKQCSYISTKNGKRCPNAAPKPEKKDGVSFCAEH | -0.01 ± 0.058 |
| CAFTMRPCSHPRLEGQEFCIKHILEDKNAPFKQCSYISTKNGKRCPNAAPKPEKKDGVSFCAEH | -0.012 ± 0.081 |
| CAFTYRPCSHPRLEGQEFCIKHILEDKNAPFKQCSYISTKNGKRCPNAAPKPEKKDGVSFCAEH | -0.151 ± 0.093 |
| CAFTVRPCSHPRLEGQEFCIKHILEDKNAPFKQCSYISTKNGKRCPNAAPKPEKKDGVSFCAEH | -0.023 ± 0.059 |
| CAFTWRPCSHPRLEGQEFCIKHILEDKNAPFKQCSYISTKNGKRCPNAAPKPEKKDGVSFCAEH | -0.193 ± 0.081 |
| CAFTQRPCSHPRLEGQEFCIKHILEDKNAPFKQCSYISTKNGKRCPNAAPKPEKKDGVSFCAEH | 0.011 ± 0.063 |
| CAFTERPCSHPRLEGQEFCIKHILEDKNAPFKQCSYISTKNGKRCPNAAPKPEKKDGVSFCAEH | 0.017 ± 0.088 |
| CAFTIRPCSHPRLEGQEFCIKHILEDKNAPFKQCSYISTKNGKRCPNAAPKPEKKDGVSFCAEH | -0.084 ± 0.1 |
| CAFTCRPCSHPRLEGQEFCIKHILEDKNAPFKQCSYISTKNGKRCPNAAPKPEKKDGVSFCAEH | -0.112 ± 0.063 |
| CAFTPRPCSHPRLEGQEFCIKHILEDKNAPFKQCSYISTKNGKRCPNAAPKPEKKDGVSFCAEH | -0.146 ± 0.095 |
| CAFTSRPCSHPRLEGQEFCIKHILEDKNAPFKQCSYISTKNGKRCPNAAPKPEKKDGVSFCAEH | -0.144 ± 0.068 |
| CAFTNRPCSHPRLEGQEFCIKHILEDKNAPFKQCSYISTKNGKRCPNAAPKPEKKDGVSFCAEH | -0.212 ± 0.12 |
| CAFTARPCSHPRLEGQEFCIKHILEDKNAPFKQCSYISTKNGKRCPNAAPKPEKKDGVSFCAEH | -0.068 ± 0.045 |
| CAFTKRPCSHPRLEGQEFCIKHILEDKNAPFKQCSYISTKNGKRCPNAAPKPEKKDGVSFCAEH | -0.083 ± 0.14 |
| CAFTFRPCSHPRLEGQEFCIKHILEDKNAPFKQCSYISTKNGKRCPNAAPKPEKKDGVSFCAEH | -0.096 ± 0.066 |
| CAFTTRPCSHPRLEGQEFCIKHILEDKNAPFKQCSYISTKNGKRCPNAAPKPEKKDGVSFCAEH | 0.034 ± 0.091 |
| CSFTHRPCSHPRLEGQEFCIKHILEDKNAPFKQCSYISTKNGKRCPNAAPKPEKKDGVSFCAEH | -0.238 ± 0.088 |
| CWFTHRPCSHPRLEGQEFCIKHILEDKNAPFKQCSYISTKNGKRCPNAAPKPEKKDGVSFCAEH | -0.541 ± 0.059 |
| CTFTHRPCSHPRLEGQEFCIKHILEDKNAPFKQCSYISTKNGKRCPNAAPKPEKKDGVSFCAEH | -0.103 ± 0.056 |

| Variant | abundance fitness |
| --- | --- |
| CRFTHRPCSHPRLEGQEFCIKHILEDKNAPFKQCSYISTKNGKRCPNAAPKPEKKDGVSFCAEH | -0.138 ± 0.076 |
| CVFTHRPCSHPRLEGQEFCIKHILEDKNAPFKQCSYISTKNGKRCPNAAPKPEKKDGVSFCAEH | -0.235 ± 0.051 |
| CAFGHRPCSHPRLEGQEFCIKHILEDKNAPFKQCSYISTKNGKRCPNAAPKPEKKDGVSFCAEH | -0.394 ± 0.082 |
| CAFHHRPCSHPRLEGQEFCIKHILEDKNAPFKQCSYISTKNGKRCPNAAPKPEKKDGVSFCAEH | -0.128 ± 0.08 |
| CAFLHRPCSHPRLEGQEFCIKHILEDKNAPFKQCSYISTKNGKRCPNAAPKPEKKDGVSFCAEH | -0.53 ± 0.055 |
| CAFWHRPCSHPRLEGQEFCIKHILEDKNAPFKQCSYISTKNGKRCPNAAPKPEKKDGVSFCAEH | -0.388 ± 0.1 |
| CAFSHRPCSHPRLEGQEFCIKHILEDKNAPFKQCSYISTKNGKRCPNAAPKPEKKDGVSFCAEH | -0.193 ± 0.081 |
| CAFMHRPCSHPRLEGQEFCIKHILEDKNAPFKQCSYISTKNGKRCPNAAPKPEKKDGVSFCAEH | -0.788 ± 0.072 |
| CAFFHRPCSHPRLEGQEFCIKHILEDKNAPFKQCSYISTKNGKRCPNAAPKPEKKDGVSFCAEH | -0.181 ± 0.14 |
| CAFVHRPCSHPRLEGQEFCIKHILEDKNAPFKQCSYISTKNGKRCPNAAPKPEKKDGVSFCAEH | -0.468 ± 0.049 |
| CAFQHRPCSHPRLEGQEFCIKHILEDKNAPFKQCSYISTKNGKRCPNAAPKPEKKDGVSFCAEH | -0.494 ± 0.099 |
| CAFDHRPCSHPRLEGQEFCIKHILEDKNAPFKQCSYISTKNGKRCPNAAPKPEKKDGVSFCAEH | -0.163 ± 0.1 |
| CAFRHRPCSHPRLEGQEFCIKHILEDKNAPFKQCSYISTKNGKRCPNAAPKPEKKDGVSFCAEH | -0.399 ± 0.085 |
| CAFAHRPCSHPRLEGQEFCIKHILEDKNAPFKQCSYISTKNGKRCPNAAPKPEKKDGVSFCAEH | -0.404 ± 0.064 |
| CAFPHRPCSHPRLEGQEFCIKHILEDKNAPFKQCSYISTKNGKRCPNAAPKPEKKDGVSFCAEH | -0.512 ± 0.083 |
| CAFNHRPCSHPRLEGQEFCIKHILEDKNAPFKQCSYISTKNGKRCPNAAPKPEKKDGVSFCAEH | -0.201 ± 0.3 |
| CAFYHRPCSHPRLEGQEFCIKHILEDKNAPFKQCSYISTKNGKRCPNAAPKPEKKDGVSFCAEH | -0.15 ± 0.14 |
| CAFKHRPCSHPRLEGQEFCIKHILEDKNAPFKQCSYISTKNGKRCPNAAPKPEKKDGVSFCAEH | -0.378 ± 0.084 |
| CAFIHRPCSHPRLEGQEFCIKHILEDKNAPFKQCSYISTKNGKRCPNAAPKPEKKDGVSFCAEH | -0.114 ± 0.1 |
| CAFEHRPCSHPRLEGQEFCIKHILEDKNAPFKQCSYISTKNGKRCPNAAPKPEKKDGVSFCAEH | -0.305 ± 0.076 |
| CAFCHRPCSHPRLEGQEFCIKHILEDKNAPFKQCSYISTKNGKRCPNAAPKPEKKDGVSFCAEH | -0.102 ± 0.2 |
